Like-named read-outs stand apart in the source and are kept apart here.

The target in experiment [1] is T1, human IL4Rα expressed on 293F-IL4Rα cell surface (human, UniProt P24394 26-825).
T1 construct: whole, on cells; also called human IL4Rα-expressing cells; cell surface IL4R
Description: flow cytometry on 293F-IL4Rα cells, PE anti-human IgG Fc.

Experiment [2] concerns the target T2, recombinant human TSLP-his (human, UniProt Q969D9 29-159, biotin-labeled in the ELISAs).
T2 construct: In-house made; not shown: His tag at the C-terminus
Description: capture ELISA: antibody captured on anti-human IgG Fc F(ab')2, biotin human TSLP-his, SA-HRP. How it is done: Briefly, 96-well micro plates were coated with 100 μL 2 μg/mL AffiniPure F(ab′)₂ Fragment Goat Anti-Human IgG, Fey fragment specific (Jackson Immuno Research, Cat #109-006-008) in PBS and incubated overnight at 4° C. Plates were washed 4 times with wash buffer (PBS+0.05% Tween-20, PBST) and then blocked with 200 μL/well blocking buffer (5% w/v non-fatty milk in PBST) for 2 hours at 37° C. […] After the final wash, the plates were incubated with 100 μL/well TMB (Innoreagents). The reaction was stopped 15 minutes later at room temperature with 50 μL/well 1M H₂SO₄, and the absorbance of each well was read on a microplate reader using dual wavelength mode with 450 nm for TMB and 630 nm as the reference wavelength. The OD (450-630) values were plotted against antibody concentration. Data was analyzed using Graphpad Prism and EC₅₀ values were reported.
On the technique in general: ELISA stands for enzyme-linked immunosorbent assay.

Experiment [3] addresses T3, recombinant human IL4Rα-his (human, UniProt P24394 26-231, limits assumed, biotin-labeled in the capture ELISA).
T3 construct: In-house made; not shown: His tag at the C-terminus
As to the kind of experiment: capture ELISA: antibody captured on anti-human IgG Fc F(ab')2, biotin human IL4Rα-his, SA-HRP.

Experiment [4] deals with T3, recombinant human IL4Rα-his. As to the kind of experiment: competitive ELISA: coated human IL4Rα-his, antibody titrated; blocked ligand biotin human IL4. On the procedure: Briefly, 100 μL human IL4Rα-his proteins (prepared in-house, IL4Rα of SEQ ID NO: 33 with C-terminal His tag) were coated on 96-well micro plates at 2 μg/mL in PBS overnight at 4° C. The next day, plates were washed with wash buffer (PBS+0.05% w/v Tween-20, PBST), and blocked with 5% w/v non-fatty milk in PBST for 2 hours at 37° C. Plates were then washed again using wash buffer. Serially diluted bispecific antibodies or the controls (starting at 100 nM with a 5-fold serial dilution) in 2.5% w/v non-fatty milk in PBST, 100 μL per well, were added to the IL4Rα bound plates, and incubated at 37° C. for 40 minutes. […] Plates were washed again using wash buffer. Thereafter, the plates were added with 100 μL/well of streptavidin conjugated HRP (1:10000 dilution in PBST buffer, Jackson Immunoresearch, Cat #016-030-084) and incubated for 40 minutes at 37° C. Plates were washed again using wash buffer. Finally, TMB was added and the reaction was stopped using 1M H₂SO₄, and the absorbance was read at 450 nm. Data was analyzed using Graphpad Prism and IC₅₀ values were reported.

In experiment [5] the target is T4, biotin-labeled human TSLP-Fc (human, biotin-labeled).
T4 construct: also called TSLP-Fc protein; TSLP-Fc-biotin
As to the kind of experiment: cell-based blocking FACS: antibody pre-mixed with biotin human TSLP-Fc; blocked binding to cell-surface TSLPR/IL7Ra on HEK293T-TSLPR/IL7R/STAT5-Luc 5C5 cells. How it is done: (§1) The cells were prepared following the instruction of lipofectamine 3000 transfection reagent (Thermo Fisher), by transfecting HEK293T cells (ATCC® CRL-11268) with pCMV-T-P plasmids inserted with TSLPR coding sequence between EcoRI and Xba1 sites and pCMV3-SP plasmids inserted with IL7Ra coding sequence between HindIII and Xba1 sites as well as pGL4.52 [luc2P/STAT5RE/Hygro](Promega).
(§2) The cells were harvested from cell culture flasks, washed twice and re-suspended in phosphate buffered saline (PBS) containing 2% v/v Fetal Bovine Serum (FACS buffer). […] Cells were washed twice with FACS buffer, and then added and incubated with 100 μL/well R-Phycoerythrin Streptavidin (1:500 dilution in FACS buffer, Jackson Immunoresearch, Cat #016-110-084) for 40 minutes at 4° C. in dark. Cells were washed twice and re-suspended in FACS buffer. Fluorescence was measured using a Becton Dickinson FACS Canto II-HTS equipment. Data was analyzed using Graphpad Prism and IC₅₀ values were reported.

In experiment [6] the target is T1, human IL4Rα expressed on 293F-IL4Rα …. Description: flow cytometry on 293F-IL4Rα cells, PE anti-human IgG Fc. How it is done:
Cells were washed twice with FACS buffer, and added with 100 μL/well R-Phycoerythrin AffiniPure Goat Anti-Human IgG, Fey fragment specific (1:1000 dilution in FACS buffer, Jackson Immunoresearch, Cat #109-115-098). Following an incubation of 40 minutes at 4° C. in dark, cells were washed three times and resuspended in FACS buffer. Fluorescence was measured using a Becton Dickinson FACS Canto II-HTS equipment. Data was analyzed using Graphpad Prism and EC₅₀ values were reported.
The source holds these as a separate data set. (A flow cytometer gives signals particle by particle.)

Experiment [7] deals with T4, biotin-labeled human TSLP-Fc. Description: cell-based blocking FACS: antibody pre-mixed with biotin human TSLP-Fc; blocked binding to cell-surface TSLPR/IL7Ra on HEK293T-TSLPR/IL7R/STAT5-Luc 5C5 cells. How it is done: as §1, §2
The source holds these as a separate data set.

B1: BSI-502-007 (bispecific antibody, human IgG1, kappa)
heavy: QVQLVQSGAEVKKPGASVKVSCKASGYTFTTYWMHWVRQAPGQGLEWMGVIDPSDSDTTYNQKFKGRVTMTRDTSTSTVYMELSSLRSEDTAVYYCTRSLDGYYDYWGQGTLVTVSSGGGGSGGGGSGGGGSGGGGSDIQMTQSPSSLSASVGDRVTITCRPTENIYSYLAWYQQKPGKAPKLLIYFARTLAEGVPSRFSGSGSGTDFTLTISSLQPEDFATYYCQHHYGTPWTFGGGTKVEIKGGGGSGGGGSEVQLVESGGGLVQPGGSLRLSCAASGFTFSTYGMSWVRQAPGKGLVWVATINSNGGSTSYPDSVKGRFTISRDNAKNTLYLQMNSLRAEDTAVYYCARFFRFRNAMDYWGQGTLVTVSSASTKGPSVFPLAPSSKSTSGGTAALGCLVKDYFPEPVTVSWNSGALTSGVHTFPAVLQSSGLYSLSSVVTVPSSSLGTQTYICNVNHKPSNTKVDKKVEPKSCDKTHTCPPCPAPEAQGGPSVFLFPPKPKDTLYITREPEVTCVVVDVSHEDPEVKFNWYVDGVEVHNAKTKPREEQYNSTYRVVSVLTVLHQDWLNGKEYKCQVSNKALPAPIEKTISKAKGQPREPQVYTLPPSRDELTKNQVSLTCLVKGFYPSDIAVEWESNGQPENNYKTTPPVLDSDGSFFLYSKLTVDKSRWQQGNVFSCSVMHEALHNHYTQKSLSLSPG
light: DIQMTQSPSSLSASVGDRVTITCRTSENIYSYLAWYQQKPGKAPKFLVYNAKTLAEGVPSRFSGSGSGTDFTLTISSLQPEDFATYYCQHYYGPPTWTFGQGTKVEIKRTVAAPSVFIFPPSDEQLKSGTASVVCLLNNFYPREAKVQWKVDNALQSGNSQESVTEQDSKDSTYSLSSTLTLSKADYEKHKVYACEVTHQGLSSPVTKSFNRGEC
notes: huC2C1A1A1-V15 IgG with an anti-TSLP scFv (VH-VL) at the N-terminus of the heavy chain; AQQ and YTE already stand in the entry
As usually defined, the EC50 is the concentration at which the effect is half-maximal. The term IC50 denotes the concentration at which inhibition is half-maximal. In the case of B1, the results for the concentration giving a half-maximal response (EC50) in experiment [1], in experiment [2] and in experiment [3] were 0.188 nM, 0.0844 nM and 0.0272 nM, respectively. For the same molecule, the IC50 came out at 0.212 nM in experiment [4] and 1.12 nM in experiment [5].

B2: BSI-502-008 (bispecific antibody, human IgG1, kappa)
heavy: DIQMTQSPSSLSASVGDRVTITCRPTENIYSYLAWYQQKPGKAPKLLIYFARTLAEGVPSRFSGSGSGTDFTLTISSLQPEDFATYYCQHHYGTPWTFGGGTKVEIKGGGGSGGGGSGGGGSGGGGSQVQLVQSGAEVKKPGASVKVSCKASGYTFTTYWMHWVRQAPGQGLEWMGVIDPSDSDTTYNQKFKGRVTMTRDTSTSTVYMELSSLRSEDTAVYYCTRSLDGYYDYWGQGTLVTVSSGGGGSGGGGSEVQLVESGGGLVQPGGSLRLSCAASGFTFSTYGMSWVRQAPGKGLVWVATINSNGGSTSYPDSVKGRFTISRDNAKNTLYLQMNSLRAEDTAVYYCARFFRFRNAMDYWGQGTLVTVSSASTKGPSVFPLAPSSKSTSGGTAALGCLVKDYFPEPVTVSWNSGALTSGVHTFPAVLQSSGLYSLSSVVTVPSSSLGTQTYICNVNHKPSNTKVDKKVEPKSCDKTHTCPPCPAPEAQGGPSVFLFPPKPKDTLYITREPEVTCVVVDVSHEDPEVKFNWYVDGVEVHNAKTKPREEQYNSTYRVVSVLTVLHQDWLNGKEYKCQVSNKALPAPIEKTISKAKGQPREPQVYTLPPSRDELTKNQVSLTCLVKGFYPSDIAVEWESNGQPENNYKTTPPVLDSDGSFFLYSKLTVDKSRWQQGNVFSCSVMHEALHNHYTQKSLSLSPG
light: B1 light
notes: huC2C1A1A1-V15 IgG with an anti-TSLP scFv (VL-VH) at the N-terminus of the heavy chain; AQQ and YTE already stand in the entry
For B2, the values for the 50% effective concentration (EC50) in experiment [1], in experiment [2] and in experiment [3] were 0.176 nM, 0.0742 nM and 0.0323 nM, respectively. Also, the concentration for half-maximal inhibition (IC50) in experiment [4] was 0.236 nM; in experiment [5] it was 1.13 nM.

B3: BSI-502-004 (bispecific antibody, human IgG1, kappa)
heavy: DIQMTQSPSSLSASVGDRVTITCRTSENIYSYLAWYQQKPGKAPKFLVYNAKTLAEGVPSRFSGSGSGTDFTLTISSLQPEDFATYYCQHYYGPPTWTFGQGTKVEIKGGGGSGGGGSGGGGSGGGGSEVQLVESGGGLVQPGGSLRLSCAASGFTFSTYGMSWVRQAPGKGLVWVATINSNGGSTSYPDSVKGRFTISRDNAKNTLYLQMNSLRAEDTAVYYCARFFRFRNAMDYWGQGTLVTVSSGGGGSGGGGSQVQLVQSGAEVKKPGASVKVSCKASGYTFTTYWMHWVRQAPGQGLEWMGVIDPSDSDTTYNQKFKGRVTMTRDTSTSTVYMELSSLRSEDTAVYYCTRSLDGYYDYWGQGTLVTVSSASTKGPSVFPLAPSSKSTSGGTAALGCLVKDYFPEPVTVSWNSGALTSGVHTFPAVLQSSGLYSLSSVVTVPSSSLGTQTYICNVNHKPSNTKVDKKVEPKSCDKTHTCPPCPAPEAQGGPSVFLFPPKPKDTLYITREPEVTCVVVDVSHEDPEVKFNWYVDGVEVHNAKTKPREEQYNSTYRVVSVLTVLHQDWLNGKEYKCQVSNKALPAPIEKTISKAKGQPREPQVYTLPPSRDELTKNQVSLTCLVKGFYPSDIAVEWESNGQPENNYKTTPPVLDSDGSFFLYSKLTVDKSRWQQGNVFSCSVMHEALHNHYTQKSLSLSPG
light: DIQMTQSPSSLSASVGDRVTITCRPTENIYSYLAWYQQKPGKAPKLLIYFARTLAEGVPSRFSGSGSGTDFTLTISSLQPEDFATYYCQHHYGTPWTFGGGTKVEIKRTVAAPSVFIFPPSDEQLKSGTASVVCLLNNFYPREAKVQWKVDNALQSGNSQESVTEQDSKDSTYSLSSTLTLSKADYEKHKVYACEVTHQGLSSPVTKSFNRGEC
notes: hu1C5F12E9-V8 IgG with an anti-IL4R scFv (VL-VH) at the N-terminus of the heavy chain; AQQ and YTE already stand in the entry
In experiment [6], B3 gave an EC50 of 0.169 nM. In experiment [7], this molecule gave an IC50 of 1.31 nM.

B4: BSI-502-005 (bispecific antibody, human IgG1, kappa)
heavy: QVQLVQSGAEVKKPGASVKVSCKASGYTFTTYWMHWVRQAPGQGLEWMGVIDPSDSDTTYNQKFKGRVTMTRDTSTSTVYMELSSLRSEDTAVYYCTRSLDGYYDYWGQGTLVTVSSASTKGPSVFPLAPSSKSTSGGTAALGCLVKDYFPEPVTVSWNSGALTSGVHTFPAVLQSSGLYSLSSVVTVPSSSLGTQTYICNVNHKPSNTKVDKKVEPKSCDKTHTCPPCPAPEAQGGPSVFLFPPKPKDTLYITREPEVTCVVVDVSHEDPEVKFNWYVDGVEVHNAKTKPREEQYNSTYRVVSVLTVLHQDWLNGKEYKCQVSNKALPAPIEKTISKAKGQPREPQVYTLPPSRDELTKNQVSLTCLVKGFYPSDIAVEWESNGQPENNYKTTPPVLDSDGSFFLYSKLTVDKSRWQQGNVFSCSVMHEALHNHYTQKSLSLSPGKGGGGSGGGGSEVQLVESGGGLVQPGGSLRLSCAASGFTFSTYGMSWVRQAPGKGLVWVATINSNGGSTSYPDSVKGRFTISRDNAKNTLYLQMNSLRAEDTAVYYCARFFRFRNAMDYWGQGTLVTVSSGGGGSGGGGSGGGGSGGGGSDIQMTQSPSSLSASVGDRVTITCRTSENIYSYLAWYQQKPGKAPKFLVYNAKTLAEGVPSRFSGSGSGTDFTLTISSLQPEDFATYYCQHYYGPPTWTFGQGTKVEIK
light: B3 light
notes: hu1C5F12E9-V8 IgG with an anti-IL4R scFv (VH-VL) at the C-terminus of the heavy chain; AQQ and YTE already stand in the entry
As for B4, the EC50 in experiment [1] came to 0.417 nM; in experiment [2] it was 0.106 nM; in experiment [3], 0.119 nM. For the same molecule, the half-maximal inhibitory concentration (IC50) in experiment [4] was 0.449 nM; in experiment [5], 1.39 nM.
